In patent publication US20160237162A1 (AstraZeneca / MedImmune, published 2016):
Residue numbers refer to the chain shown, from its start. Names and notes keep the numbering of the source.

B1: 1A4 antibody, human IgG1 (antibody, V domains shown)
VH: EVQLLESGGGLVQPGGSLRLSCAASGFTFSYYYMQWVRQAPGKGLEWVSYIGSSGGVTNYADSVKGRFTISRDNSKNTLYLQMNSLRAEDTAVYYCARVGLGDAFDIWGQGTMVTVSS
VL: QSVLTQPPSASGTPGQRVTISCSGSSSNIGLNYVSWYQQLPGTAPKLLISRNNQRPSGVPDRFSGSKSGTSASLAISGLRSEDEADYYCAAWDDSPPGEAFGGGTKLTVL
notes: IgG1, lambda
B2: Clone 16 antibody (CL16), human IgG1 (antibody, V domains shown)
VH: B1 VH
VL: B1 VL with S2Y, V3E, I20M, P96L, P97S, A100V
notes: also called parental IgG; Clone 16-PA
B3: 2C2-YTE monoclonal antibody (antibody, human IgG1, V domains shown)
VH: B1 VH
VL: B1 VL with S26L
B4: 2F10 antibody, human IgG1 (antibody, V domains shown)
VH: B1 VH
VL: B1 VL with P97S
B5: 3E1 antibody, human IgG1 (antibody, V domains shown)
VH: B1 VH
VL: B1 VL with S23R
notes: IgG1, lambda
B6: clone 2D1 Fab (Fab, V domains shown)
VH: B1 VH
VL: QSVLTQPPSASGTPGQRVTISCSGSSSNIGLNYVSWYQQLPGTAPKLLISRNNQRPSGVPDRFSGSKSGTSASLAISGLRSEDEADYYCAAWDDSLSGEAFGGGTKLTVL
notes: Fab, single VL mutant (V97A) of GL-P6
B7: clone 6E3 Fab (Fab, V domains shown)
VH: B1 VH
VL: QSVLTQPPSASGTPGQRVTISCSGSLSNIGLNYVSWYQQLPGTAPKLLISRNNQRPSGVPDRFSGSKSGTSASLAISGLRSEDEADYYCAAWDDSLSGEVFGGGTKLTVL
notes: Fab, single VL mutant (S27L) of GL-P6
B8: clone 4C4 Fab (Fab, V domains shown)
VH: B1 VH
VL: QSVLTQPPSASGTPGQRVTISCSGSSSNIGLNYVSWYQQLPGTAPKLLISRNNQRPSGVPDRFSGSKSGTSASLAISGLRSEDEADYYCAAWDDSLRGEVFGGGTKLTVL
notes: Fab, single VL mutant (S96aR) of GL-P6
B9: clone 8A3 Fab (Fab, V domains shown)
VH: B1 VH
VL: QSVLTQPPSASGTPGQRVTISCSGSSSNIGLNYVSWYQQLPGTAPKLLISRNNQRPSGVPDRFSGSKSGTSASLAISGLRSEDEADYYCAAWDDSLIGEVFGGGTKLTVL
notes: Fab, single VL mutant (S96aI) of GL-P6
B10: clone 4H6 Fab (Fab, V domains shown)
VH: B1 VH
VL: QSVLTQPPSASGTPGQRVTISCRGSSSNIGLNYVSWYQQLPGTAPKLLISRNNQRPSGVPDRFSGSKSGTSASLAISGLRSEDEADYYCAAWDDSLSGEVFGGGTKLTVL
notes: Fab, single VL mutant (S24R) of GL-P6
B11: P2B11 antibody, human IgG1 (antibody, V domains shown)
VH: B1 VH
VL: not shown
B12: 2C2 monoclonal antibody, human IgG1 (antibody, V domains shown)
VH: B1 VH
VL: B1 VL with S26L

Key:
[1] = biological target: T1, human HER3 on human cancer cells (human, UniProt P21860 20-1342); assay: cell-based or functional assay
[2] = biological target: T2, Recombinant mouse HER3(ECD)/Fc chimera (mouse, UniProt Q61526 20-641); assay: ELISA with purified IgG on murine HER3
T2 construct: Generated in house; also called murine HER3 (as a HER3-Fc fusion); murine HER3; not shown: Fc part and any linker or tag of the in-house chimera

[3] = biological target: T3, Recombinant human HER3(ECD)/Fc chimera (human, UniProt P21860 20-643, biotinylated in the capture ELISA of section 1.9); assay: HRG-HER3 ELISA: plate coated with HRG, antibody dilutions premixed with 5 ug/ml recombinant HER3, bound HER3 detected by anti-His HRP; blocked ligand HRG
T3 construct: extracellular domain; Bought (R&D Systems); The ELISA sections say only 'recombinant HER3 protein' / 'biotinylated HER3 protein' / 'recombinant HER3'; also called recombinant HER3 protein; biotinylated HER3 protein; not shown: Fc, linker peptide and C-terminal 6x Histidine-tag

[4] = biological target: T1, human HER3 on human cancer cells; assay: cell-based or functional assay; remark: listed apart in the source
[5] = biological target: T1, human HER3 on human cancer cells; assay: cell-based or functional assay; remark: listed apart in the source
[6] = biological target: T3, Recombinant human HER3(ECD)/Fc chimera; assay: Fab capture ELISA with biotinylated HER3
Protocol: (§1) Briefly, this capture ELISA involved coating individual wells of a 96-well Maxisorp Immunoplate with approximately 50 ng of a sheep anti-human Fd antibody (Biodesign International, ME) in a carbonate buffer at pH 8.5 overnight at 4° C. The next day, the plate was blocked with 3% BSA in PBS buffer for 1 h at room temperature. Fab supernatant was then added to the plate and incubated at room temperature for 1 hr. After washing, 0.1 μg of biotinylated HER3 protein was added to the well and the mixture was incubated for 1.5 h at room temperature. This was followed by incubation with neutravidin-horseradish peroxydase (HRP) conjugate (Pierce, Ill.) for approximately 40 min at room temperature. HRP activity was detected with tetra-methyl-benzidine (TMB) substrate and the reaction quenched with 0.2 M H₂SO₄. Plates were read at 450 nm.
(§2) The Fab concentration was determined by comparing the ELISA signals with the signals generated by the reference Fab.

[7] = biological target: T3, Recombinant human HER3(ECD)/Fc chimera; assay: Fab capture ELISA with biotinylated HER3, against GL-P6
Protocol: as §1, §2

[8] = biological target: T1, human HER3 on human cancer cells; assay: cell-based or functional assay; remark: listed apart in the source
[9] = biological target: T1, human HER3 on human cancer cells; assay: cell-based or functional assay; remark: listed apart in the source
[10] = biological target: T1, human HER3 on human cancer cells; assay: cell-based or functional assay; remark: listed apart in the source
[11] = biological target: T1, human HER3 on human cancer cells; assay: cell-based or functional assay; remark: listed apart in the source
[12] = biological target: T1, human HER3 on human cancer cells; assay: cell-based or functional assay; remark: listed apart in the source
[13] = biological target: T1, human HER3 on human cancer cells; assay: cell-based or functional assay; remark: listed apart in the source
[14] = biological target: T1, human HER3 on human cancer cells; assay: cell-based or functional assay; remark: listed apart in the source
[15] = biological target: T1, human HER3 on human cancer cells; assay: cell-based or functional assay; remark: listed apart in the source

| Binder | BT474 6-day growth % Max inhibition [1] | BT474 clonogenic assay % Max inhibition [1] | BT474 pAKT assay % Max inhibition [1] | T47D HRG inducible pHer3 % Max inhibition [1] | also measured |
| --- | --- | --- | --- | --- | --- |
| B1 | 54.5% | 81.3% | 62% | 84% | binding result [2]: binds |
| B2 | 46% | 79.8% | 64% | 75% | IC50 (read off the curve) [3]: ~0.6 µg/mL |
| B3 |  |  |  |  | IC50 (read off the curve); suppression of pAKT (Meso-Scale Discovery assay), BT-474 cells [4]: ~0.003 ug/ml; IC50 (read off the curve); suppression of pHER3 (pHER3 ELISA), BT-474 cells [5]: ~0.003 ug/ml |
| B4 | 49% | 80.4% | 62% | 86% |  |
| B5 | 48.1% | 79.2% | 66% | 86% | binding result [2]: binds |
| B6 |  |  |  |  | binding result [6]: binds |
| B7 |  |  |  |  | binding result [6]: binds |
| B8 |  |  |  |  | fold binding improvement [7]: 8.6 fold |
| B9 |  |  |  |  | fold binding improvement [7]: 3.5 fold |
| B10 |  |  |  |  | binding result [6]: binds |
| B11 | 47.5% | 87.1% | 62% | 85% |  |
| B12 |  | 87.2% | 61% | 85% | IC50; suppression of pHER3 (pHER3 ELISA), Kato III cells [8]: 0.8 ng/ml; IC50; suppression of pAKT (Meso-Scale Discovery assay), BT-474 cells [4]: 0.003 ug/ml; IC50; suppression of pAKT (Meso-Scale Discovery assay), MKN45 cells [9]: 2.9 ng/ml; IC50; suppression of pHER3 (pHER3 ELISA), HCC827 cells [10]: 2 ng/ml; IC50; suppression of pHER3 (pHER3 ELISA), EGFR-TKI (gefitinib)-resistant HCC827 cells [11]: 3.5 ng/ml; IC50; growth suppression (CellTiter-Glo, 6 days), HMCB melanoma cells [12]: 0.027 µg/mL; IC50; suppression of pAKT (Meso-Scale Discovery assay), Kato III cells [13]: 0.9 ng/ml; IC50; suppression of HRG-induced pHER3 (pHER3 ELISA), MCF-7 cells [14]: 8.4 ng/ml; IC50; suppression of pHER3 (pHER3 ELISA), BT-474 cells [5]: 0.004 ug/ml; HRG-induced pHER3 ELISA in MCF-7 cells; potency by IC50 against MM and AMG [15]: ~5 fold |
